These results are taken from patent US20080226632 (published 2008).

Test [1] deals with T1, HB-EGF (human, UniProt Q99075).
T1 chain: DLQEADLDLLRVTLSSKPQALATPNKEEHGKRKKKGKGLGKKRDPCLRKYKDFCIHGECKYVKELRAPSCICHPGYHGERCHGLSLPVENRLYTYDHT

Test [2] deals with EGF (human, UniProt P01133).
Chain of EGF (P01133 971-1023): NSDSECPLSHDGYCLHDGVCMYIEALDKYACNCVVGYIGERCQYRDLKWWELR

B1: PAR34 (antibody, V domains shown)
VH: EIQLQQSGPELVKPGASVKVSCKASGYAFTNYNMYWVKQSHGKSLEWIGYIDPYYGDPGYSQKFKGKATLTVDKSSSTAYMHLNSLTSEDSAVYYCARRGNFPYYFDYWGQGTTLTVSS
VL: DIKMTQSPSSMYASLGERVTITCKASQDINSYLSWFQQKPGKSPKTLIYRANRLVDGVPSRFSGSGSGQDYSLTISSLEYEDMGIYYCLQYDEFPYTFGGGTKLEIK
As to B1, the binding result in test [1] and in test [2] was “no binding” each time.

B2: PAR80 (antibody, V domains shown)
VH: EVQLQQSGAELVRSGASVKLSCTASGFNIKDYYIHWVKQRPEQGLEWIGCIDPENGDTEYAPNFQGRATMTADTSSNTAYLQLSSLTSEDTAVYYCYGGTITFAYWGQGTLVTVSA
VL: QAVVTQESALTTSPGETVTLTCRSSTGAVTTSNSANWVQEKPDHLFTGLIGGTINRVPGVPARFSGSLIGDKAALTITGAQTEDEAIYFCALWYSNHWVFGGGTKLTVLG
Consider B2, for which the binding result in test [1] and in test [2] was “no binding” in each case.
